Assay: soluble on expression in E. coli; label from the status in PepcDB or PDB records

| Sequence | soluble on expression in E. coli |
| --- | --- |
| MRVLTKKTEEEIRRDFFGPVQEAACKPYLLDVDPRKSWCELSELRLSTLICEFKPIGINKHFHLIGIIERMGKVFDNENAQVEIFLSEENRVAFRNQQRDLLMGGRPERTSYPPKYLCRPSLEMIEDKLKKWFGLRFCEENESYPSEFNSVTDYELPEYIMAEVRELSDKRAERERNTDNGIVESEKKSTIPRRLTEEDENYDIQT | not soluble |
| MKLQLALDELTLPEAMVFMDKVVDDVDIIEVGTPFLIREGVNAIKAIKEKYPHKEVLADAKIMDGGHFESQLLFDAGADYVTVLGVTDVLTIQSCIRAAKEAGKQVVVDMICVDDLPARVRLLEEAGADMLAVHTGTDQQAAGRKPIDDLITMLKVRRKARIAVAGGISSQTVKDYALLGPDVVIVGSAITHAADPAGEARKISQVLLQHH | soluble |
| MTVATYEVEKQFLTYVKKIQNYGEALSLMFWDLRTGAPKKGVDQRSEVIGMLSSEVFAMSTSDEMGNYLTELEALISEDKLSETTKKMVEECRKEYDRNKKIPQAEYEAYVKLEAKAESVWEEAREKSDFEMFRPYLEQIVEFKKKFITYWGYETYKYNTLLDMYEPGITVEVLDHVFGQLRERIVPLVKEISESQKRLKTSALSEHFSKEKQKNFTLELLKQLNYDFEAGRLDETVHPFEITLNRGDVRITTRYDEKDFRMAVFGTIHECGHAVYEQNIAEKFEGTPLCSGTSMGIHESQSLFFENFIGRNKSFWKKNYDLLKEYSDGQFNDISVDEFYDAINESKPSFIRIEADELTYPLHVMVRYELEKELFDGTLQVKDLPAAWNDKMEAYLGIRPANDAQGVLQDVHWAGGSFGYFPSYALGYMYAAQFKQRMVKDIPNFDALLEEGNVTPIREWLTENIHQYGKTKKPLEILEDVTGEGLNANYLADYLEAKYREIYEL | not soluble |
| MCRHCHFLSAIAPVSGTNKSQPGNKWDMVLLVPFDGSALSKAALTRAMEFADYRDEDITALSVIPDDAAYAREHGWLDADEAFTVEAVADRMREQAESVAPAASFRYEVPEDVSSMASTTTNITRTIREVAHEEEASIVFIGSENAGRVSTPVCSVGSPVSEDPEYDVHIVRHP | not soluble |
| VIVAGARTPIGKLMGSLKDFSASELGAIAIKGALEKANVPASLVEYVIMGQVLTAGAGQMPARQAAVAAGIGWDVPALTINKMCLSGIDAIALADQLIRAREFDVVVAGGQESMTKAPHLLMNSRSGYKYGDVTVLDHMAYDGLHDVFTDQPMGALTEQRNDVDMFTRSEQDEYAAASHQKAAAAWKDGVFADEVIPVNIPQRTGDPLQFTEDEGIRANTTAAALAGLKPAFRGDGTITAGSASQISDGAAAVVVMNQEKAQELGLTWLAEIGAHGVVAGPDSTLQSQPANAINKALDREGISVDQLDVVEINEAFAAVALASIRELGLNPQIVNVNGGAIAVGHPLGMSGTRITLHAALQLARRGSGVGVAALCGAGGQGDALILRAG | not soluble |
| MIGTAVKELLLEKQETFLVPAENVANVMCLNPLSHAALVLSQVRYSKIPVLDKGDRFVGLIGLTDVVDKMFDLTSVDFEKLNEFTVADVMEVNVPVIGESWDLEEVLHLLVDASFLPVVDDNQRFKGIITRKEILKAVNHMAHELEKHHLVLPKSEEEMKVI | not soluble |
| MSPIPLPVTDTDDAWRARIAAHRADKDEFLATHDQSPIPPADRGAFDGLRYFDIDASFRVAARYQPARDPEAVELETTRGPPAEYTRAAVLGFDLGDSHHTLTAFRVEGESSLFVPFTDETTDDGRTYEHGRYMDVDPAGADGGDEVALDFNLAYNPFCAYGGSFSCALPPADNHVPAAITAGERVDADLEHHHHHH | soluble |
| MSLKVLIKTDLVLGAPKTLRDVYIGIDEGQIKVISKEKPEDYDYAEYVIGGKNRVVAPGFVTTHSFLYLYPFRYRVFSGKANAFQLMSTLTPNDIYYFSLMGAYHLLKTGVTTVVTSGPNLDMIARAISEVGLRPVLAVGVDCPDSKEDWEREFTTLYNRWSSKNENRVILRLCSNEYSKEVFELSQQYDFPVLLERFVSLENISGNPINVIGLGGGARKDLDIIKQKGFHLASTPSYEVSQFPLSQYKPSISLDLSPTFDIRHEVSTSITRLILTPEEALNAMTIWGLLQLKYNDRGVLENGKVADLVIFEVKEPPTFPLDYESPYESIVFNLSTPETVLVSGEAILDGGVPLNIGIKHIEKAIERLEDIDKKVTRPARYMEKDEGHHHHHH | not soluble |
| QPPQFKLDPRLARLLGIHTQTRPVIIQALWQYIKTHKLQDPHEREFVLCDKYLQQIFESQRMKFSEIPQRLHALLMPPEP | soluble |
| MGSSHHHHHHHHDYDIPTTENLYFQGSELSSLTAVSPVDGRYGDKVSALRGIFSEYGLLKFRVQVEVRWLQKLAAHAAIKEVPAFAADAIGYLDAIVANFSEEDAARIKTIERTTNHDVKAVEYFLKEKVAEIPELHAVSEFIHFACTSEDINNLSHALMLKTARDEVILPYWRQLIDGIKDLAVQYRDIPLLSRTHGQPATPSTIGKEMANVAYRMERQYRQLNQVEILGKINGAVGNYNAHIAAYPEVDWHQFSEEFVTSLGIQWNPYTTQIEPHDYIAELFDCVARFNTILIDFDRDVWGYIALNHFKQKTIAGEIGSSTMPHKVNPIDFENSEGNLGLSNAVLQHLASKLPVSRWQRDLTDSTVLRNLGVGIGYALIAYQSTLKGVSKLEVNRDHLLDELDHNWEVLAEPIQTVMRRYGIEKPYEKLKELTRGKRVDAEGMKQFIDGLALPEEEKARLKAMTPANYIGRAITMVDELK | soluble |
| MHHHHHHSSGRENLYFQGTFAERYNIVCMLGKGSFGEVLKCKDRITQQEYAVKVINKASAKNKDTSTILREVELLKKLDHPNIMKLFEILEDSSSFYIVGELYTGGELFDEIIKRKRFSEHDAARIIKQVFSGITYMHKHNIVHRDLKPENILLESKEKDCDIKIIDFGLSTCFQQNTKMKDRIGTAYYIAPEVLRGTYDEKCDVWSAGVILYILLSGTPPFYGKNEYDILKRVETGKYAFDLPQWRTISDDAKDLIRKMLTFHPSLRITATQCLEHPWIQKYSSETPTISDLPSLESAMTNIRQFQAEKKLAQAALLYMASKLTTLDETKQLTEIFRKLDTNNDGMLDRDELVRGYHEFMRLKGVDSNSLIQNEGSTIEDQIDSLMPLLDMDGSGSIEYSEFIASAIDRTILLSRERMERAFKMFDKDGSGKISTKELFKLFSQADSSIQMEELESIIEQVDNNKDGEVDFNEFVEMLQNFVRNE | soluble |
| ELAAIQNLGGMDVLCTDKTGTITEDRVVLVQHLNPLGDLSDEVLNLAYLNSSYQTGWKNLMDIAVINFYEEHQWKTPFKNVTKIDEIPFDFSRRRLTVVVNADDHQLMITKGAVEEMEEVCTHAQINGEIVPLSTAVREELRRVNVQMNKQGMRVLAVAVKKDVHKEAVYSVEDEKEMTLIGFMGFLDP | not soluble |
| MNKTELIKAIAQDTGLTQVSVSKMLASFEKIITETVAKGDKVQLTGFLNIKPVARQARKGFNPQTQEALEIAPSVGVSVKPGESLKKAAEGLKYEDFAK | soluble |
| MDDSSEEANQFEPPPAIRKSTRAVNNLSPHQKEVRCQCGTNNTDNRLIKCVECEKWQHAICMSVMPLDIIMTYKCEMCEPRLLMVSRSQARAYQGVEPEPREVRKKGRNQSVNLEEFLEFLSEASENISRPLALTTLFEDYKEHINYPQSVRILRKQLESNLLETISMSPNYYADRKAQMLFAMGLRVKGEFLERLERNAVVEVDGYHRITFYKSKNLEFRGKHRVGRFPLVNRRKSAESTSQQHGNSGEEDDDDIFIDLVVPVTGNSRWNQFPVKQEIPDEQSFGSASTLPNAEIEPNLQYSLSDTMTTGSASTWNMAATPPSEMRGIMMESMNGLHALQSASYPPYQEMQEMLCVQHTMMKSMHEIIKTQSDFYREMFKTRAIAGAPPAPATTSLRAFLHFLKGYVDYLESEQLVDCSRLTQQHLETCRAADKLISMEKLLTGLAVATTIAEAHLSDVSAIINGASAMEFYKFIEIYASNQSNSAFSGLCTDLKQKIQALVNMDKKIPFKELSRAFRTAISLVSQ | not soluble |
| MGSDKIHHHHHHDNLQAPGSIKDEEKLRSWLAGYEAEAIKVLREVALSGWRYFNDASPSLKLALDEAENVLTMFVRSTSMQAKQFDMASVTDEKVMRQLGYVSFEGMSALAPSRFADYSQAQAALNRDSKDSTICDKDVPPPCALQKIDMDSIFRNEKDASRLQHLWVSYVTAIAKSKPSYNNIITISNEGAKLNGFANGGAMWRSAFDMSSKVHKAEFDLNKQIDKIYSTIQPFYQLLHAYMRRQLAGIYSNPVGLSKDGPIPAHLFGSLDGGDWSAHYEQTKPFEEESETPEAMLSAFNTQNYTTKKMFVTAYRYFKSAGFPHLPKSYWTSSIFARVWSKDMICHPAAALDMRAPNDFRVKACAQLGEPDFEQAHSLLVQTYYQYLYKDQSLLFREQASPVITDAIANAFAHLSTNPHYLYSQKLVPSEHLDIKDSVIINKLYKESLESFTKLPFTIAADNWRYELFDGTVPKNKLNDRWWEIRNKYEGVRSPQPYNTSNLDALIHNSVSQVHSPATRTLISYVLKFQILKALCQRELFWLSEGCILSEDTTEKLRETMKLGSSITWLKALEMISGKGELDAQPLLEYYEPLINWLRNTNEIDQVVVGWDGEGTP | not soluble |
| MGSDKIHHHHHHMKMSINQIGRSNKVQIEKTEVEISTPDGKMPAFFYQPCERGQKPAVILLMEAFGLTSHIQDVATRIAKEGYVVLTPDLYYRELTNNKFGYEEVEQAMAMMYRLDFGKPIEEDIRAAIAYLKSQSNVFSEKIGVTGFCLGGGLSFLSACKFSDEIAAVASFYGMVLDDWIEAVTNISVPIYLFYGGIDSFIPPERVQQIETRFQELSKEYTLKVYPDADHGFFCHERSSYNRLAAEDSWNELTQFFHRHLQ | not soluble |
| MSDLVSYHLDDGVATLTLNNGKVNAISPDVIIAFNAALDQAEKDRAIVIVTGQPGILSGGYDLKVMTSSAEAAINLVAQGSTLARRMLSHPFPIIVACPGHAVAKGAFLLLSADYRIGVAGPFSIGLNEVQIGMTMHHAGIELARDRLRKSAFNRSVINAEMFDPEGAMAAGFLDKVVSVEELQGAALAVAAQLKKINMNAHKKTKLKVRKGLLDTLDAAIEQDRQHML | soluble |
| MGSDKIHHHHHHMLENRVKTKQIFIGGVAIGGDAPISTQSMTFSKTADIESTKNQIDRLKLAGADLVRVAVSNEKDALALKELKKVSPLPLIADIHFHYKFALIAAQSVDAIRINPGNIGSKEKIKAVVDACKEKNIPIRIGVNAGSLEKQFDQKYGPTPKGMVESALYNAKLLEDLDFTNFKISLKASDVIRTIEAYRMLRPLVIYPFHLGVTEAGNLFSSSIKSAMALGGLLMEGIGDTMRVSITGELENEIKVARAILRHSGRLKEGINWISCPTCGRIEANLVDMAIKVEKRLSHIKTPLDISVMGCVVNALGEAKHADMAIAFGNRSGLIIKEGKVIHKLAEKDLFETFVIEVENLAKEREKSLKD | not soluble |
| MGSDKIHHHHHHMEEEMLKCKRLFVSDMDGTFYLGNTLLPGSLDFAMAVHRLGARLVFLTNNSSRTPEEYIRKLEKMGVDRKLFQVYTSGEATISFLKRDFAKKKAFLLSTPSVREMFEKGGVMLDDFDPEVLVLAFDTSITYEKIRRAALLIRQGIPYVASHPDINCPTEEGPIPDVGSLISLFETSTGRRPDHIIGKPDPAILKMVMEDFDCSQEETVVIGDRLYTDIECGLKAEVDTFLVLSGETTRDMIPDRHSYKVVENVGSLAKKIRDHDTV | not soluble |
| MSEESNDDKKPTTKFELERETELRFEVEASQSVQLELLAGMAEIFGTELTRNKKFTFDAGAKVAVFTWHGCSLQLSGRTEVAYVSKDTPMLLYLNTHTALEQMRRQAEKEEERGPRVMVVGPTDVGKSTVCRLLLNYAVRLGRRPTYVELDVGQGSVSIPGTMGALYIERPADVEEGFSIQAPLVYHFGSTTPGTNIKLYNKITSRLADVFNQRCEVNRRASVSGCVINTCGWVKGYGYQALVHAASAFEVDVVVVLDQERLYNELKRDLPHFVRTVLLPKSGGVVERSKDFRRECRDERIREYFYGFRGCFYPHAFNVKFSDVKIYKVGAPTIPDSCLPLGMSQEDNQLKLVPVTPGRDMVHHLLSVSTAEGTEENLSETSVAGFIVVTSVDVEHQVFTVLSPAPRPLPKNFLLIMDIRFMDLK | soluble |
